Assay results reported in paper PMC3992019, “Initiation of the flexirubin biosynthesis in Chitinophaga pinensis” (Microbial Biotechnology, 2014).

Experiments:
purified protein = substrate: O=C(O)/C=C/c1ccccc1; assay: purified protein; settings: 1 mM CoA, 1 mM ATP, 1 mM MgCl2, 50 mM Tris pH 7.5, 55°C, 0.5 μM enzyme, 50-7000 μM substrate
[1] = substrate: O=C(O)/C=C/c1ccc(O)cc1; assay: coupled pyrophosphate assay (EnzChek); format: biochemical, Chitinophaga pinensis; settings: 1 mM CoA, 1 mM ATP, 1 mM MgCl2, 50 mM Tris pH 7.5, 55°C, 0.5 μM enzyme, 10-750 μM substrate

B1: FlxY (Chitinophaga pinensis DSM 2588) (protein)
chain: MYIPDIELQSTAAIRKYQETEVLRLLGYLRQFSPFYREWFAQHGIQPSTVKSLNDLWLIPPVTKEHLQQQNWDFLCVDKSRIAEYTTTSGTLGNPVIIALTQKDQERLSYNEYISFCCAGGTENDIYQLMLTLDRQFMAGMAYYNGIRKLGAGVLRVGPGVPSLQWENISRIQPTTIVAVPSFIVKLIAFAKEHNIDINASSVKSAVCIGENIRNVDFSLNVLGKKITEQWDIKLYSTYASTEMQTAFTECNAGQGGHHHPELLYIELLDDNNQPVGPNQDGEVTITTLGVEGMPLLRYKTGDICRYFQEPCSCGRHTMRLSPVIGRRKQMIKYKGTTLYPPALFDLLNDMEEVKEFVVEVFSNEIGTDEILLHLWPVAETEDIDRKIRSYLQAKLRVIPQVRYCSQADVMKMQFPEGSRKPIKFIDRR
notes: His6-tagged full-length (pCOLADuet-1, BamHI/HindIII), expressed in E. coli BL21 (DE3), HisTrap purified, tag kept; expected size 49 kDa
With B1 as the protein, how does the Km (purified protein) read?
Its Km is 868 µM.

And the Km [1]?
The Km was 17 µM.
